# Laboratory results reported in the nanobody polyreactivity screen of Harvey et al. (2022).
# Test: yeast display, Sf9 membrane polyspecificity reagent, FACS + sequencing; frameworks hold sequencing errors
# Outline: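 Genes from sorted yeast were amplified by colony PCR, read by MiSeq 2 × 250 sequencing and filtered on CDR length. These cells carried a synthetic nanobody library in Saccharomyces cerevisiae BJ5465 and were sorted by FACS into low and high (top ~1%) gates on anti-HA and streptavidin fluorescence. Polyreactivity is labelled according to the gate of origin.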
row,Sequence,polyreactivity (PSR sort gate)
1,QVQLVESGGGLVQAGGSLRLSCAASGIIFNYNAMGWYRQAPGKERELVASISSSGGNTYYADSVKGRFTISRDNAKNTVYLQMNSLKPEDTAVYYCAARYVGWRLKRWYEYWGQGTQVTVSS,high polyreactivity
2,QVQLVESGGGLVQAGGSLRLSCAASGIIFPGNAMGWYRQAPGKERELVAAISSGGNTKYADSVKGRFTISRDNAKNTGYLQMNSLKPEDTAVYYCAADGASRALYDYWGQGTQVTVSS,high polyreactivity
3,QVQLVESGGGLVQAGGSLRLSCAASGIIFPIYAMGWYRQAPGPERELVAAIDINGGRTYYADSVKGRFTISRDNAKNTVYLPMNSLKPEDTAVYYCNAEGGSYARLYGNYEYWGQGTQVTVSS,low polyreactivity
4,QVQLVESGGGLVQAGGSLRLSCAASGIIFPRYAMGWYIQAPGKERELVAAITKRGGSTYYADSVKGRFTISRDNANNTVYLQMNSLKPEDTAVYYCARVWSRRYGGWYRNYDYWGQGTKVTVSS,high polyreactivity
5,QVQLVESGGGLVQAGGSLRLSCAASGIIFPRYAMGWYRQAPGKERELVAAITKRGGSTYYADSVKGRFTISRDNAKNTVYLQMNSLKPEDTAVYYCAADDNSGYYYWGQGTQVTVSS,high polyreactivity
6,QVQLVESGGGLVQAGGSLRLSCAASGIIFPRYTMGSYRQAPGKERELVAAISWRGGRTYYADSVKGRFTISRDNAKNTVYLQMNSLKPEDTAVYYCAAEFVHSYSYAYDYWGQGTQVTVSS,high polyreactivity
7,QVQLVESGGGLVQAGGSLRLSCAASGIIFPSYAMGWYRQAPGKERELVADISNDDSTNYADSVKGRFTISRDNAKNTVYLQMNSLKPEDTAVYYCNAEEWGFWWRYDYWGQGTQVTVSS,high polyreactivity
8,QVQLVESGGGLVQAGGSLRLSCAASGIIFPSYVMGWYRPAPGKERELVARISARGGRTYYADSVKGRFTISRDNAKNTVYLQMNSLKPEDTAVYYCAARWGITTWYDYWGQGTQVTVSS,high polyreactivity
9,QVQLVESGGGLVQAGGSLRLSCAASGIIFPTYAMGWYRQAPGKERELVAAISVSGGTTSYADSVKGRFTISRDNAKNTVYLQMNSLKPEDTAVYYCAARKYSYPVAAHYYWGQGTQVTVSS,high polyreactivity
10,QVQLVESGGGLVQAGGSLRLSCAASGIIFPYYAMGWYRQATGKERELVAAITRGGITYYADSVKGRFTISRDNAKNTVYLQMNSLKPEDTAVYYCAARLRGSYDYWGQGTQVTVSS,high polyreactivity
11,QVQLVESGGGLVQAGGSLRLSCAASGIIFPYYTMGWYRQAPGKERELVARITNGGRTYYADSVNGRFTISRDNAKNTVYLQMNSLKPEDTAVYYCNAGRYYIGGYWGQGTQVTVSS,high polyreactivity
12,QVQLVESGGGLVQAGGSLRLSCAASGIIFQAYAMGWYRQAPGKERELVAAISYSGGSTYYADSVKGRFTISRDNAKNTVYLQMNCLKPEDTAVYYCAATFYGYFDSVFSWGYYYWGQGTQVTVSS,low polyreactivity
13,QVQLVESGGGLVQAGGSLRLSCAASGIIFQFYAMGWYRQAPGKEREFVAAISARSGRTYYADSVKGRFTISRDNAKNTVYLQMNSLKPEDTAVYYCNTAYAYSGRYDYWGQGTQVTVSS,high polyreactivity
14,QVQLVESGGGLVQAGGSLRLSCAASGIIFQRNDMGWYRQAPGKERELVANIRDGGITYADSVKGRFTISRDNAKNTVYLQMNSLKPEDTAVYYCARDDTSPGYGDQSSNAAYYYWGQGTQVTVSS,low polyreactivity
15,QVQLVESGGGLVQAGGSLRLSCAASGIIFQSYTMGWYRQAPGKVRELVAAIDSGGSTYYADSVKGRFTISRDNAKNTVYLQMNSLKPEDTAVYYCAAEPDTYWYTYDYWGQGTQVTVSS,low polyreactivity
16,QVQLVESGGGLVQAGGSLRLSCAASGIIFRAYAMGWYRPAPGKETEFVADISYSGGRTYYADSVKGRFTISRDNAKNTVYLPLNSLKPEDTAVYYCGARKLYGSPEHGYWGQGTQVTVSS,high polyreactivity
17,QVQLVESGGGLVQAGGSLRLSCAASGIIFRFYAMGWYRQAPGKERELVAAITSSGGSTYYADSVKGRFTISRDNAKNTVYLQMNSLKPEDTAVYYCATSTGPYRGRFYYWGQGTQVTVSS,high polyreactivity
18,QVQLVESGGGLVQAGGSLRLSCAASGIIFRGNAMGWYRQAPGKERELVAAISKSGGRTYYADSVKGRFTISRDNAKNTVYLQMNSLKPEDTAVYYCAASYYAVGGYDYWGQGTQVTVSS,high polyreactivity
19,QVQLVESGGGLVQAGGSLRLSCAASGIIFRGYAMGWDRQAPGQERELVAVIDRSGARTNYADSVTGRFTISRDNAKNTVYLQMNSLKPEDTAVYYCAASGVRAYSGLGYWGQGSQVTVSS,high polyreactivity
20,QVQLVESGGGLVQAGGSLRLSCAASGIIFRGYAMGWYRLAPGKERELVAAINQDSGNTYYADSVKGRFTISRDNAKKTVYLQMNSLKPEDTAVYYCAASSRLNRWNYYAFDYWGQGTQVTVSS,high polyreactivity
21,QVQLVESGGGLVQAGGSLRLSCAASGIIFRGYVMGWYRQAPGKERELVAAISTSGGRTSYADSVKGRFTISRDNAKNTVYLQMNSLKPEDTAVYYCAADSGYRYYTKSVGYDYWGQGTQVTVSS,high polyreactivity
22,QVQLVESGGGLVQAGGSLRLSCAASGIIFRGYVMGWYRQAPGKERELVADISRGGSTYYADSVKGRFTISRDNAKNTVYLQMNSLKPEDTAVYYCATAGPLWFYWGYDYWGQGTQVTVSS,low polyreactivity

row,Sequence,polyreactivity (PSR sort gate)
1,QVQLVESGGGLVQAGGSLRLSCAASGIIFRLYGMGWYRPAPGKAREFVATITWRGGRTNYADSVKGRFTISRDNAKNTVYLLMNSRKPEDTADYYCAKDVRYARSNEYDSWGQGTQVTVSS,low polyreactivity
2,QVQLVESGGGLVQAGGSLRLSCAASGIIFRNYAMGWYRQAPGKERELVATIRYRGGRTYADSVKGRFTISRDNAKNTVYLQMNSLKPEDTAVYYCNARRLSVYGDYDYWGQGTQVTVSS,high polyreactivity
3,QVQLVESGGGLVQAGGSLRLSCAASGIIFRPYAMGWYRQAPGKERELVAAITGSGVSTYYADSVKGRFTISRDNAKNTVYLQMNCQKPEDTAVYYCAKRYNRGYHRYDYWGQGTQVTVSS,low polyreactivity
4,QVQLVESGGGLVQAGGSLRLSCAASGIIFRPYAMGWYRQAPGKERELVASITLSGGSTYYADSVKGRFTISRDNAKNTVYLQMNSLKPEDTAVYYCNRYPRLRVVPSRYVKYDYWGQGTQVTVSS,low polyreactivity
5,QVQLVESGGGLVQAGGSLRLSCAASGIIFRRYAMGWYRQAPGKERELVAAITGRGGSTYYADSVKGRFTISRDNAKNTVYLQMNSLKPEDTAVYYCAADVYTGDYDSWGQGTQVTVSS,high polyreactivity
6,QVQLVESGGGLVQAGGSLRLSCAASGIIFRSYAMGWYRQAPGKERELVAAITSGGSTNYADSVKGRFTISRDNAKNTVYLQMHSLKPEDTAVYYCAARWPWYGKLRYYYWGQGTQVTVSS,high polyreactivity
7,QVQLVESGGGLVQAGGSLRLSCAASGIIFRYNALGWYRQAPGKERELVSPISVSGGSTYYADSVKGRFTISRDNAKNTVYLQMNSLQPEDTAVYYCAALLYRYGVHQAEHDYWGQGTQVTVSS,high polyreactivity
8,QVQLVESGGGLVQAGGSLRLSCAASGIIFRYYAMGWYRQAPGKERELVAAITVNGGRTYYADSVKGRFTISRDNAKNTVYLQMNSLKPEDTAVYYCAAYPHRYRVTPYPSVVSLDNYWGQGTQVTVSS,low polyreactivity
9,QVQLVESGGGLVQAGGSLRLSCAASGIIFRYYAMGWYRQAPGKEREWVAAISSSGVSTYYADSVKGRFTISRDNAKNNVYLQMNSLKPEDTAVYYCAAVTTWRMDYWGQGTQVTVSS,high polyreactivity
10,QVQLVESGGGLVQAGGSLRLSCAASGIIFSDYAMGWYRQAPGKERELVAAISSNAGTTSYADSVKGRFTISRDNAKNTVYLQMNSLKPEDTAVYYCNADSSYPPGYDYCGQGTQVTVSS,low polyreactivity
11,QVQLVESGGGLVQAGGSLRLSCAASGIIFSDYDMGWYRQAPGKERELVAAISWSGGSTYYADSVKGRFTISRDNAKNTVYLQMNSLKPEDTAVYYCAVDSQRQVTSRDDYWGQGTQVTVSS,low polyreactivity
12,QVQLVESGGGLVQAGGSLRLSCAASGIIFSGNAMGWSRQAPGKERELVAAITLSGGSTYYADSVKGRFTISRDNAKNTVYLQMNSLKPEDTAVYYCNAVYDTKYSLRDIDTEYGSWGQGTQVTVSS,low polyreactivity
13,QVQLVESGGGLVQAGGSLRLSCAASGIIFSGNAMGWYRQAPGKERELVAAITLSGGSTYYADSVKGRFTISRDNAKNTVYLQMNSLKPEDTAVYYCNAVYDTNYSLRDIDTEYGSWGQGTQVTVSS,low polyreactivity
14,QVQLVESGGGLVQAGGSLRLSCAASGIIFSGYVMGWYRQAPGKERELVAAISSGGSTYYADSVKGRFTISRDNAKNTVYLQMNSLKPEDTAVYYCAAAGYWTLGYGYWGQGTQVTVSS,low polyreactivity
15,QVQLVESGGGLVQAGGSLRLSCAASGIIFSTYAMGWYRQAPGKDRELVAAITSTGSTNYADSEKGRFTISRDNAKTTVSLQMNSLKPEDTAVYFCAARYAGPSPTDTGHDYWGQGTQVTVSS,low polyreactivity
16,QVQLVESGGGLVQAGGSLRLSCAASGIIFSTYAMGWYRQAPGKERELDATITSSGSNTYYADSVKGRFTISRDNAKNTVYLQMNSLKPEDTAVYYCNAVASHYDFGYWGQGTQVTVSS,high polyreactivity
17,QVQLVESGGGLVQAGGSLRLSCAASGIIFSYNFMGWYRQAPGKERELVAGISRSGGSTYYADSVKGRFTISRDNAKNTVYLQMNSLKPEDTAVYYCNTVERGQNRRPGDKARRYDWGQGTQVTVSS,high polyreactivity
18,QVQLVESGGGLVQAGGSLRLSCAASGIIFSYYAMGWYRQAPGKERELVAAITSGGGSTYYADSVKGRFTISRDNAKNTVYLQMNSLKPEDTAVYYCAADYNRELGRKFEYWGQGSQVTVSS,high polyreactivity
19,QVQLVESGGGLVQAGGSLRLSCAASGIIFTFNAMGWYRQAPGKERELVASISITGDTYYADSVKGRFTISRDNAKNTVYLQMNSLKPEDTAVYYCAAEYYFYSRHWYISYDYWGQGTQVTVSS,low polyreactivity
20,QVQLVESGGGLVQAGGSLRLSCAASGIIFTFYTMGWYRQAPGKERELVAAITWSGGSTNYADSVKGRFTISRDNAKNTVYLQMNSLKPEDTAVYYCAAQGYPQSPPWEDYWGQGTQVTVSS,low polyreactivity
21,QVQLVESGGGLVQAGGSLRLSCAASGIIFTGNAMGWYRQAPGKERELVAAITSGDTTNYADSVKGRFTISRDNAKNTVYLQKNSLKPEDTAVYYCAKELQVRQAGDYWGQGTQVTVSS,low polyreactivity
